In patent CN111494645A (UNIV CHINA PHARMA, dated 2020):
Where a chain is given by its changes, count along the chain named. In names and notes the source's numbering stands.

B1: 抗人DLL4人源化抗体H3L2 (antibody)
heavy: not shown
light: EIVITQSPDFQSVTPKEKVTITCSVSSSISSSYLHWYQQKPDQSPKPWIYGTSNLASGVPSRFSGSGSGTDYTLTINSLEAEDAATYYCQQWSSSPLTFGQGTKLEIKVDTVAAPSVFIFPPSDEQLKSGTASVVCLLNNFYPREAKVQWKVDNALQSGNSQESVTEQDSKDSTYSLSSTLTLSKADYEKHKVYACEVTHQGLSSPVTKSFNRGEC
notes: IgG1 humanized antibody; also called 裸抗
B2: 抗人DLL4人源化抗体THL4与美登素生物碱DM1的偶联物HLmD4 (THL4-mpeo-DM1) (antibody, human IgG1, kappa, DAR 3.96)
heavy: not shown
light: B1 light with V207C
modifications: DM1 coupled through the BMPEO linker (mpeo-DM1) to the engineered Cys at light chain position 207 (V207C); DM1 coupled through the BMPEO linker (mpeo-DM1) to the engineered Cys at heavy chain position 121 (K121C)
notes: Antibody-drug conjugate of the IgG1 antibody THL4 (H3L2 with light chain V207C and heavy chain K121C) with DM1; average DAR 3.96 by HPLC; also called 抗体药物偶联物HLmD4

Experiments:
人DLL4抗原 [1] = molecular target: T1, 人DLL4抗原 (human, UniProt Q9NR61 27-524, limits assumed); test: ELISA, DLL4 antigen coated at 1 μg/mL, antibody titrated 0-1000 nM, HRP secondary, OD450-OD630
T1 construct: also called Delta like 4

人DLL4抗原 [2] = molecular target: T1, 人DLL4抗原; test: ELISA, DLL4 antigen coated at 1 μg/mL, conjugate titrated 0-1000 nM, HRP secondary, OD450-OD630

T1 sequence (Q9NR61 27-524 limits assumed): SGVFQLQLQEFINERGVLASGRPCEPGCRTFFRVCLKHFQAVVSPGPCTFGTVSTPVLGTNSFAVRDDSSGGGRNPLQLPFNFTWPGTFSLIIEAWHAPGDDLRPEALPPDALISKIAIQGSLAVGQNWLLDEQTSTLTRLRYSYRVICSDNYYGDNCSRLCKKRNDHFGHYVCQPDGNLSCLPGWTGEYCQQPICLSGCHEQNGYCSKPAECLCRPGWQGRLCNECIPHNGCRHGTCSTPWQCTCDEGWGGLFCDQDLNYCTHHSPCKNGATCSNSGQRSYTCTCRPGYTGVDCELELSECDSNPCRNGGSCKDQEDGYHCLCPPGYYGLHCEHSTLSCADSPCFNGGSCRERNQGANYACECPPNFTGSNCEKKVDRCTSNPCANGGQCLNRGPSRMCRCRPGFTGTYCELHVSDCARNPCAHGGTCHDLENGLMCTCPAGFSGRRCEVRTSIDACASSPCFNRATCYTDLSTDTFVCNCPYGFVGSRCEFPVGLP

Row | Binder | EC50 (人DLL4抗原 [1]) [nM] | EC50 (人DLL4抗原 [2]) [nM]
1 | B1 | 49.2 | 
2 | B2 |  | 42.6
